According to US20170296617:

B1: ROCK1 (protein)
chain: MSTGDSFETRFEKMDNLLRDPKSEVNSDCLLDGLDALVYDLDFPALRKNKNIDNFLSRYKDTINKIRDLRMKAEDYEVVKVIGRGAFGEVQLVRHKSTRKVYAMKLLSKFEMIKRSDSAFFWEERDIMAFANSPWVVQLFYAFQDDRYLYMVMEYMPGGDLVNLMSNYDVPEKWARFYTAEVVLALDAIHSMGFIHRDVKPDNMLLDKSGHLKLADFGTCMKMNKEGMVRCDTAVGTPDYISPEVLKSQGGDGYYGRECDWWSVGVFLYEMLVGDTPFYADSLVGTYSKIMNHKNSLTFPDDNDISKEAKNLICAFLTDREVRLGRNGVEEIKRHLFFKNDQWAWETLRDTVAPVVPDLSSDIDTSNFDDLEEDKGEEETFPIPKAFVGNQLPFVGFTYYSNRRYLSSANPNDNRTSSNADKSLQESLQKTIYKLEEQLHNEMQLKDEMEQKCRTSNIKLDKIMKELDEEGNQRRNLESTVSQIEKEKMLLQHRINEYQRKAEQENEKRRNVENEVSTLKDQLEDLKKVSQNSQLANEKLSQLQKQLEEANDL
B2: MBP-ROCK1 (ROCK1 catalytic domain linked to maltose binding protein) (protein)
chain: MSTGDSFETRFEKMDNLLRDPKSEVNSDCLLDGLDALVYDLDFPALRKNKNIDNFLSRYKDTINKIRDLRMKAEDYEVVKVIGRGAFGEVQLVRHKSTRKVYAMKLLSKFEMIKRSDSAFFWEERDIMAFANSPWVVQLFYAFQDDRYLYMVMEYMPGGDLVNLMSNYDVPEKWARFYTAEVVLALDAIHSMGFIHRDVKPDNMLLDKSGHLKLADFGTCMKMNKEGMVRCDTAVGTPDYISPEVLKSQGGDGYYGRECDWWSVGVFLYEMLVGDTPFYADSLVGTYSKIMNHKNSLTFPDDNDISKEAKNLICAFLTDREVRLGRNGVEEIKRHLFFKNDQWAWETLRDTVAPVVPDLSSDIDTSNFDDLEEDKGEEETFPIPKAFVGNQLPFVGFTYYSNRRYLSSANPNDNR

Experiments:
[1] = molecular target: T1, Pep25-P2 (ERTYSPS)
T1 chain: ERTYSPS

[2] = molecular target: T2, peptide25 (ERTYSPSTAVRS)
T2 chain: ERTYSPSTAVRS

Protein | [S6] phosphorylation ratio (pS6 peak area over pS6 plus S6), mass spectrometry of the ROCK reaction with substrate S6 [1] | conversion ratio of phosphorylated S6 substrate (mass spectrometry) [1] | ROCK autophosphorylation under high ATP levels (1 mM) [2]
B1 | ratio falls with the dose: about 31 at 1 uM, about 29 at 10 uM, about 22 at 30 uM, about 18 at 100 uM; no lower plateau, less than half suppressed at 100 uM; the pS6 peak near m/z 3710 shrinks from 1 uM to 100 uM in the four spectra | Pep25-P2 repressed the phosphorylation of substrate S6 by ROCK | –
B2 | – | – | blocked ROCK autophosphorylation
